Experimental data as given in patent US20130045267A1, “METHODS OF USING AGENTS THAT MODULATE CLAUDIN EXPRESSION” (priority 2010, published 2013).
Values joined by “and” are separate entries in the source; they are usually repeats but may differ in a detail not shown here. Equal entries are not always repeated.

How the values were obtained:
[1] = system: claudin-1 transcripts; experiment: qPCR of claudin-1 transcripts after siRNA transfection of PHK; type: cell-based, human; settings: siRNA 100 nM
Protocol: (§1) QPCR was performed using the iScript™ cDNA Synthesis kit and iQ™ SYBER Green Supermix assay system (Bio-Rad Laboratories). All PCR amplifications were carried out in triplicate on an iQ5 Multicolor real-time PCR detection system (Bio-Rad). Primers were designed and synthesized by Integrated DNA Technologies (Table 1). Relative gene expression was calculated by using the 2^−ΔΔCt method. Livak and Schmittgen, “Analysis of Relative Gene Expression Data Using Real-Time Quantitative PCR and the 2(−Delta Delta C(T)) Method,” Methods 25:402-8 (2001), which is hereby incoporated by reference in its entirety. The normalized Ct value of each sample was calculated using GAPDH as an endogenous control gene.
(§2) PHK were plated on glass coverslips at 2-3×10^5 cells/well in a 6-well plate or at 2-3×10^4 cells/filter in Transwell insert (Costar; PET membrane, 0.4 μm pore size, 6.5 mm insert) in Keratinocyte-SFM without antibiotics. The next day after plating, cells were transfected with claudin-1 specific or control (scrambled) siRNAs (Santa Cruz) using Lipofectamine™ 2000 transfection Reagent (Invitrogen). TEER and permeability experiments were conducted 48 hours after PHK were switched to differentiation media.
siRNA approach was used to selectively downregulate claudin-1 in primary human keratinocytes (PHK). […] There was no effect on mRNA expression of occludin, ZO-1, nectin-1, E-cadherin or filaggrin (n=5/group). Relative gene expressions were calculated by using the 2^−ΔΔCt method, in which Ct indicates cycle threshold, the fractional cycle number where the fluorescent signal reaches detection threshold. The normalized Ct value of each sample was calculated using GAPDH as endogenous control gene. The specific sequence information for the claudin-1 siRNA (h) is detailed below. (This siRNA is a pool of 3 separate strands.)

[2] = system: connexin-26 (GJB2); experiment: qPCR of connexin-26 (GJB2) after claudin-1 knockdown in PHK; type: cell-based, human; settings: claudin-1 siRNA transfected PHK, n=6
Protocol: as §1, §2

[3] = system: nectin-1 (PVRL1); experiment: qPCR of nectin-1 (PVRL1) after CLDN1 siRNA in PHK; type: cell-based, human
Protocol: PHK were plated on glass coverslips at 2-3×10^5 cells/well in a E-well plate or at 2-3×10^4 cells/filter in Transwell inserts (Costar; PET membrane, 0.4 μm pore size, 6.5 mm insert) in Keratinocyte-SFM without antibiotics. The next day after plating, cells were transfected with claudin-1 specific or control (scrambled) siRNAs (Santa Cruz) using Lipofectamine™ 2000 transfection Reagent (Invitrogen).
Reverse transcription was performed from total RNA using iScript™ cDNA Synthesis kit (Bio-Rad) according to the manufacturer's protocol. qPCR was performed using the iQ™ SYBER Green Supermix assay system from Bio-Rad Laboratories. All PCR amplifications were carried out in triplicate on an iQ5 Multicolor real-time PCR detection system (Bio-Rad). Primers were designed and synthesized by Integrated DNA Technologies. […]
Relative gene expression was calculated by using the […], in which Ct indicates cycle threshold, the fractional cycle number where the fluorescent signal reaches detection threshold. Livak and Schmittgen, “Analysis of Relative Gene Expression Data Using Real-Time Quantitative PCR and the 2(−Delta Delta C(T)) Method,” Methods 25:402-8 (2001), which is hereby incorporated by reference in its entirety. The normalized Ct value of each sample was calculated using GAPDH as an endogenous control gene.

[4] = system: occludin, ZO-1, nectin-1, E-cadherin or filaggrin; experiment: qPCR of other barrier proteins after claudin-1 siRNA in PHK; type: cell-based, human; settings: siRNA 100 nM, n=5/group
Protocol: as §1, §2

[5] = system: primary human keratinocytes (PHK); experiment: Trans Epithelial Electric Resistance (TEER) in PHK monolayers; type: cell-based
Protocol: PHK were plated at a subconfluent density of 2.5−3×10^4 cells/filter in Transwell insert and cultured in Keratinocyte-SFM media until confluent. TEER was measured using an EVOMX voltohmmeter (World Precision Instruments, Sarasota, Fla.). The resistance of cell-free filters was subtracted from each experimental value.
as §2
TEER was measured in PHK as described above. PHK were stimulated with S. aureus-derived peptidoglycan (PGN, 0.2-20 μg/ml, n=3-7) (FIG. 19A), Malp-2 (10-1000 ng/ml, n=3) (FIG. 19B), and Pam3CSK4 a TLR1/2 ligand (0.01-20 μg/ml, n=3-6) (FIG. 19C). Data are presented by analyzing the area under the TEER curve and normalized to the mean values for the control group (media alone)*p<0.05; **p<0.01.

[6] = system: HSV-1 strain F; experiment: Infectious center assay; type: cell-based, Herpes Simplex Virus (HSV)-1; settings: 24 h post-infection, n=3
Protocol: Twenty-four hours post-infection, PHK were treated with 0.05% Trypsin-EDTA (Invitrogen/Gibco) for 5 min at 37° C. followed by gently scraping to lift the cells, washed 3 times in DMEM containing 1% HI-FBS, and vortexed for 30 sec to disrupt cell clumps. Alive cells were counted using Trypan blue exclusion and scalar PHK dilutions (1000 to 1 cells in 1 ml of media) were plated onto pre-grown monolayers of Vero cells in six well plates. After 2 h, 1 ml of DMEM containing 5% HI-FBS and 0.4% human-γ-globulin (Sigma; final concentration 0.5 mg/ml) was added to each well. After 3 days incubation at 37° C., cells were fixed (75% MeOH/25% acetic acid) and stained with 0.1% crystal violet. Plaques were counted by 2 independent investigators and results expressed as percent of infected PHK.

B1: CLDN1 siRNA: claudin-1 specific siRNA (Santa Cruz), a pool of 3 separate strands, SEQ ID NO: 10-15 (nucleic acid)
chain 1: UACAUAGGCAUAGUUCAUGNN
chain 2: CAUGAACUAUGCCUAUGUANN
chain 3: AACGUAUGCAGUUAAUUCCNN
chain 4: GGAAUUAACUGCAUACGUUNN
chain 5: UGAAGAUCUAUGUAUGUGGNN
chain 6: CCACAUACAUAGAUCUUCANN
modifications: chemistry not given here
reduction in claudin-1 transcripts compared to control transfected cells [1]: 50%
claudin-1 transcripts (MEAN±SEM) ([1]; n=5/group): 5.42±0.8 RVU
claudin-1 transcripts relative to control transfected cells ([1]; n=5/group): 0.5 fold
claudin-1 transcripts relative to control transfected cells ([1]; n=5/group, listed as Cldn1 siRNA): 0.5%±0.06 fold
connexin-26 (GJB2) expression over control [2]: 1.7±0.8 fold
nectin-1 mRNA expression, effect of CLDN1 silencing ([3]; n=5): not affected
nectin-1 (PVRL1) mRNA relative expression ([3]; siRNA 100 nM, n=5/group): 0.99±0.16
mRNA expression of occludin, ZO-1, nectin-1, E-cadherin or filaggrin ([4]; listed as Cldn1 siRNA): no effect
mRNA expression of occludin, ZO-1, nectin-1, E-cadherin or filaggrin ([4]; listed as claudin-1 siRNA): no changes
reduction in TJ function (electrical resistance and permeability assays) ([5]; claudin-1 siRNA, PHK): ~50%
TEER ([5]; siRNA 100 nM, 48 hours after switch to differentiation media, n=4): 80.6±6.4 ohms×cm^2
drop in TEER ([5]; siRNA 100 nM, vs scrambled siRNA): > 50%
PHK infected with HSV-1 [6]: 38±6% and 38±6.43%
